Legend:
[1] = molecular target: AMC011 SOSIP-I53-50A (HIV-1 (AMC011, Clade B)); experiment: not stated; purified fusion proteins; result shown in Supplementary Fig. 2d, e (not shown)
[2] = molecular target: BG505 SOSIP-I53-50A.1NT1 (HIV-1 (BG505)) (UniProt Q2N0S6); experiment: negative-stain EM
[3] = molecular target: BG505 SOSIP-I53-50A.1NT1 (HIV-1 (BG505)) (UniProt Q2N0S6); experiment: SEC; SOSIP fusion protein after PGT145 purification, Superose 6 Increase, Assembly Buffer II (25 mM Tris, 500 mM NaCl, 5% glycerol pH 8.2); trimer and aggregate peaks
[4] = molecular target: ConM SOSIP-I53-50A (HIV-1 (consensus of Group M)); experiment: not stated; purified fusion proteins; result shown in Supplementary Fig. 2d, e (not shown)
[5] = molecular target: ZM197M SOSIP-I53-50A (HIV-1 (ZM197M, Clade C)); experiment: as above

AMC011 SOSIP-I53-50A (designed binder)
stoichiometry N [1]: 3

BG505 SOSIP-I53-50A.1NT1 (from UniProt Q2N0S6) (designed binder)
stoichiometry N [2]: 3
stoichiometry N [3]: 3

ConM SOSIP-I53-50A (designed binder)
stoichiometry N [4]: 3

ZM197M SOSIP-I53-50A (designed binder)
stoichiometry N [5]: 3
